Test results published in patent publication US20240325490A1 (RESEARCH AND BUSINESS FOUNDATION SUNGKYUNKWAN UNIVERSITY, published 2024).

What was measured:
[1] = target: T1, P62 (endogenous, mouse brain) (mouse, UniProt Q64337 2-442, limits assumed); test: protein ligation assay (PLA) in situ, mouse brain CA1 after MCAO
T1 construct: Endogenous protein in mouse brain tissue

[2] = target: T1, P62 (endogenous, mouse brain); test: immunoprecipitation / immunoblot from AAV2-injected mouse brains after MCAO (FIGS. 6F and 6G)

| Binder | binding result [1] | binding result [2] |
| --- | --- | --- |
| EBP1 (endogenous, mouse brain) (other, UniProt P50580 2-394, looked up, Endogenous protein detected in situ by PLA; also called mouse Ebp1) SGEDEQQEQTIAEDLVVTKYKMGGDIANRVLRSLVEASSSGVSVLSLCEKGDAMIMEETGKIFKKEKEMKKGIAFPTSISVNNCVCHFSPLKSDQDYILKEGDLVKIDLGVHVDGFIANVAHTFVIGVAQGTQVTGRKADVIKAAHLCAEAALRLVKPGNQNTQVTEAWNKVAHSFNCTPIEGMLSHQLKQHVIDGEKTIIQNPTDQQKKDHEKAEFEVHEVYAVDVLVSSGEGKAKDAGQRTTIYKRDPSKQYGLKMKTSRAFFSEVERRFDAMPFTLRAFEDEKKARMGVVECAKHELLQPFNVLYEKEGEFVAQFKFTVLLMPNGPMRITSGPFEPDLYKSEMEVQDAELKALLQSSASRKTQKKKKKKASKTVENATSGETLEENGAGD | binds |  |
| GFP-EBP1-K376A expressed from AAV2 in mouse brain (other, UniProt Q9UQ80 1-394, looked up, also called AAV2-GFP-EBP1-K376A; AAV2-K376A; not shown: GFP tag) MSGEDEQQEQTIAEDLVVTKYKMGGDIANRVLRSLVEASSSGVSVLSLCEKGDAMIMEETGKIFKKEKEMKKGIAFPTSISVNNCVCHFSPLKSDQDYILKEGDLVKIDLGVHVDGFIANVAHTFVVDVAQGTQVTGRKADVIKAAHLCAEAALRLVKPGNQNTQVTEAWNKVAHSFNCTPIEGMLSHQLKQHVIDGEKTIIQNPTDQQKKDHEKAEFEVHEVYAVDVLVSSGEGKAKDAGQRTTIYKRDPSKQYGLKMKTSRAFFSEVERRFDAMPFTLRAFEDEKKARMGVVECAKHELLQPFNVLYEKEGEFVAQFKFTVLLMPNGPMRITSGPFEPDLYKSEMEVQDAELKALLQSSASRKTQKKKKKKASATAENATSGETLEENEAGD |  | no binding |
